Publication PMC7867654

Experiments:
Test in all cases: EMSA
[1] = target: PRC2-AEBP2 (PRC2.2, 5-mer) (Homo sapiens, UniProt Q15910-2;O75530;Q15022;Q09028;Q6ZN18 1-751;1-441;1-739;1-425;1-517)
[2] = target: T1, PRC2-PHF19 (PRC2.1, 5-mer) (Homo sapiens, UniProt Q15910-2;O75530;Q15022;Q09028;Q5T6S3 1-751;1-441;1-739;1-425;1-580)
[3] = target: T1, PRC2-PHF19 (PRC2.1, 5-mer); remark: listed apart in the source

B1: 36 bp ATrich (dsDNA)
DNA 1: TATATAAATTAATATATAATTATATTATATTAAAAT
DNA 2: ATTTTAATATAATATAATTATATATTAATTTATATA
- binding result [1]: no binding

B2: 96 bp ATrich (dsDNA)
DNA 1: TATATTTTATATATATATAAATTAATATATAATTATATTATATTAAAATTAATATTATATTTAAATTATTATATATATATAAATAATTTAATTATA
DNA 2: TATAATTAAATTATTTATATATATATAATAATTTAAATATAATATTAATTTTAATATAATATAATTATATATTAATTTATATATATATAAAATATA
- binding result [2]: binds

B3: 48 bp LHX6 (dsDNA)
DNA 1: GCGCTAGGAGCATCCGCCCGCTCGACGCGCGCCGGGAAATTGAAGCGG
DNA 2: CCGCTTCAATTTCCCGGCGCGCGTCGAGCGGGCGGATGCTCCTAGCGC
- binding result [1]: no binding

B4: 24 bp LHX6 (dsDNA)
DNA 1: ACGCGCGCCGGGAAATTGAAGCGG
DNA 2: CCGCTTCAATTTCCCGGCGCGCGT
- binding result [1]: no binding
- binding signal [3]: ~5 fold tighter than 24 bp ATrich; weaker than 48 bp

B5: 24 bp ATrich (dsDNA)
DNA 1: TATATAATTATATTATATTAAAAT
DNA 2: ATTTTAATATAATATAATTATATA
- binding result [1]: no binding
- binding signal [3]: ~5 fold weaker than 24 bp LHX6

B6: 96 bp (dsDNA)
DNA 1: TGAATTAGTGTCAATATCCCTACTTCAATTTCCTAGTATATATTAAGTAGGTAGATGCTCCTAGTACTCTGGGTTTTATTTTCTCAACCACCACCA
DNA 2: TGGTGGTGGTTGAGAAAATAAAACCCAGAGTACTAGGAGCATCTACCTACTTAATATATACTAGGAAATTGAAGTAGGGATATTGACACTAATTCA
- binding result [2]: binds

B7: 36 bp LHX6 (dsDNA)
DNA 1: TCCGCCCGCTCGACGCGCGCCGGGAAATTGAAGCGG
DNA 2: CCGCTTCAATTTCCCGGCGCGCGTCGAGCGGGCGGA
- binding result [1]: no binding

B8: 12 bp GC (dsDNA)
DNA 1: GGGCGGCCGCCC
DNA 2: GGGCGGCCGCCC
- binding result [2]: no binding

B9: 48 bp ATrich (dsDNA)
DNA 1: ATATTTTATATATATATAAATTAATATATAATTATATTATATTAAAAT
DNA 2: ATTTTAATATAATATAATTATATATTAATTTATATATATATAAAATAT
- binding result [1]: no binding
